In patent publication US7494767:

Tests used:
[1] = target: GAL4 activation domain-Tsg101 fusion protein (wild-type human Tsg101) (yeast; human) (UniProt Q99816); assay: yeast 2-hybrid, β-galactosidase; p1-p6 variant with Tsg101
[2] = target: GAL4 DNA-binding domain-p1-p6 fusion protein (yeast; human immunodeficiency virus type 1 (HIV-1)) (UniProt P04386); assay: yeast 2-hybrid, β-galactosidase; Tsg101 variant with p1-p6

Sequence of GAL4 activation domain-Tsg101 fusion protein (wild-type human Tsg101) (yeast; human) (Q99816 whole entry, the tested form may be a part): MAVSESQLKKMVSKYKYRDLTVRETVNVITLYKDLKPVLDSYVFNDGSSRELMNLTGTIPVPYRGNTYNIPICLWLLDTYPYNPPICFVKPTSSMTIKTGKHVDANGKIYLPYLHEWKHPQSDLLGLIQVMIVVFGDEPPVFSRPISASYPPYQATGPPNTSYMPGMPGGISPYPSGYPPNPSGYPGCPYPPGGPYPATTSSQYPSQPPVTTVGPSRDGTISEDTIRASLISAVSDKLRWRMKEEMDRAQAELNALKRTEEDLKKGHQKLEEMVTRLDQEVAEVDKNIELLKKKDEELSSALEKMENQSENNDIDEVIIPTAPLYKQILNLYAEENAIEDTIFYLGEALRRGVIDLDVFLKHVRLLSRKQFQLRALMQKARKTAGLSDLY

## GAL4 DNA-binding domain-p1-p6 with the (LXX)4 repeat motif deleted (from UniProt P04386 1-147; P03347 435-512)
[1]
  β-galactosidase activity, % of the wild-type level (% of wild-type): 55

## GAL4 DNA-binding domain-p1-p6 with the first PTAPP motif deleted (from UniProt P04386 1-147; P03347 435-512)
[1]
  β-galactosidase activity, % of wild-type protein binding (% of wild-type): 50

## GAL4 DNA-binding domain-p1-p6 with the first PTAPP motif deleted and Ala for Pro7 in the second motif (from UniProt P04386 1-147; P03347 435-512)
[1]
  β-galactosidase activity, % of wild-type (% of wild-type): 25

## GAL4 DNA-binding domain-p1-p6 with the second PTAPP motif deleted (from UniProt P04386 1-147; P03347 435-512)
[1]
  β-galactosidase activity, % of wild-type protein binding (% of wild-type): 25

## GAL4 activation domain-Tsg101 Y110W (from UniProt Q99816 1-390)
[2]
  p6 interaction, % of wild-type (% of wild-type): 31

## GAL4 activation domain-Tsg101 Y113V (from UniProt Q99816 1-390)
[2]
  binding, % of wild-type (% of wild-type): 33

## GAL4 activation domain-Tsg101 with Ala for Thr-Tyr-Asn (67-69) (from UniProt Q99816 1-390)
[2]
  binding, % of the wild-type level (% of wild-type): 5
